Experimental findings from publication PMC11996885 (2025) are described below.

To fix the notation:
B1: FGFR2 parental antibody E (antibody, V domains shown)
VH: QVQLVQSGAEVKKPGSSVKVSCKASGYIFTTYNVHWVRQAPGQGLEWIGSIYPDNGDTSYNQNFKGRATITADKSTSTAYMELSSLRSEDTAVYYCARGDFAYWGQGTLVTVSS
VL: DIQMTQSPSSLSASVGDRVTITCKASQGVSNDYAWYQQKPGKAPKLLIYSASYRYTGVPSRFSGSGSGTDFTFTISSLQPEDIATYYCQQHSTTPYTFGQGTKLEIK
B2: FGFR2 parental antibody F (antibody, V domains shown)
VH: QVQLVQSGAEVKKPGESLKISCKGSGYSFTNYYIHWVRQMPGKGLEWMGAIYPDNSDTTYSPSFQGQVTISADKSISTAYLQWSSLKASDTAMYYCARGADIWGQGTLVTVSS
VL: DIQMTQSPSSLSASVGDRVTITCRASQDIDPYLSNWYQQKPGKAPKLLIYDASNLQSGVPSRFSGSGSGTDFTLTISSLQPEDFATYYCQQTTSHPYTFGQGTKVEIK
B3: FGFR2 parental antibody B (antibody, V domains shown)
VH: QIQLVQSGPELKKPGETVKISCKASGYTFTDFGMNWMKQAPGKGFKWMGWINTSTGESTYADDFKGRFAFSLETSASTAYLQINNLKNEDMATYFCARNSYYGGSYGYWGQGTTLTVSS
VL: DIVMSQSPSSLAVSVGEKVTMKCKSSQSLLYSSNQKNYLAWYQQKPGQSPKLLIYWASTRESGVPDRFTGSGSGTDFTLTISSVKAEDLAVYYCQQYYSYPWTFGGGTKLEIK
B4: FGFR2 parental antibody C (antibody, V domains shown)
VH: QVQLVESGGGLVKPGGSLRLSCAASGFTFSSYALSWVRQAPGKGLEWVGRIRSKIDGGTTDYAAPVKGRFTISRDDSKNTLYLQMNSLKTEDTAVYYCARDRSPSDSSAFAIWGQGTLVTVSS
VL: DIELTQPPSVSVSPGQTASITCSGDNLGSQYVDWYQQKPGQAPVLVIYDDNDRPSGIPERFSGSNSGNTATLTISGTQAEDEADYYCQSWDSLSVVFGGGTKLTVL
B5: FGFR2 parental antibody A (antibody, V domains shown)
VH: EVQLLESGGGLVQPGGSLRLSCAASGFTFSSYAMSWVRQAPGKGLEWVSAISGSGTSTYYADSVKGRFTISRDNSKNTLYLQMNSLRAEDTAVYYCARVRYNWNHGDWFDPWGQGTLVTVSS
VL: QSVLTQPPSASGTPGQRVTISCSGSSSNIGNNYVSWYQQLPGTAPKLLIYENYNRPAGVPDRFSGSKSGTSASLAISGLRSEDEADYYCSSWDDSLNYWVFGGGTKLTVL
B6: FGFR2 parental antibody D (antibody, V domains shown)
VH: EVQLVESGGGLVQPGGSLRLSCAASGFPFTSTGISWVRQAPGKGLEWVGRTHLGDGSTNYADSVKGRFTISADTSKNTAYLQMNSLRAEDTAVYYCARTYGIYDTYDMYTEYVMDYWGQGTLVTVSS
VL: DIQMTQSPSSLSASVGDRVTITCRASQDVDTSLAWYKQKPGKAPKLLIYSASFLYSGVPSRFSGSGSGTDFTLTISSLQPEDFATYYCQQSTGHPQTFGQGTKVEIK

The target in the experiment is FGFR2 on SNU16 cells (FGFR2 amplification) (human (endogenous in SNU16), UniProt P21802 22-821). As to the kind of experiment: FACS; apparent Kd, SNU16 cells. For orientation: A flow cytometer gives signals particle by particle.
Chain of FGFR2 on SNU16 cells (FGFR2 amplification) (P21802 22-821): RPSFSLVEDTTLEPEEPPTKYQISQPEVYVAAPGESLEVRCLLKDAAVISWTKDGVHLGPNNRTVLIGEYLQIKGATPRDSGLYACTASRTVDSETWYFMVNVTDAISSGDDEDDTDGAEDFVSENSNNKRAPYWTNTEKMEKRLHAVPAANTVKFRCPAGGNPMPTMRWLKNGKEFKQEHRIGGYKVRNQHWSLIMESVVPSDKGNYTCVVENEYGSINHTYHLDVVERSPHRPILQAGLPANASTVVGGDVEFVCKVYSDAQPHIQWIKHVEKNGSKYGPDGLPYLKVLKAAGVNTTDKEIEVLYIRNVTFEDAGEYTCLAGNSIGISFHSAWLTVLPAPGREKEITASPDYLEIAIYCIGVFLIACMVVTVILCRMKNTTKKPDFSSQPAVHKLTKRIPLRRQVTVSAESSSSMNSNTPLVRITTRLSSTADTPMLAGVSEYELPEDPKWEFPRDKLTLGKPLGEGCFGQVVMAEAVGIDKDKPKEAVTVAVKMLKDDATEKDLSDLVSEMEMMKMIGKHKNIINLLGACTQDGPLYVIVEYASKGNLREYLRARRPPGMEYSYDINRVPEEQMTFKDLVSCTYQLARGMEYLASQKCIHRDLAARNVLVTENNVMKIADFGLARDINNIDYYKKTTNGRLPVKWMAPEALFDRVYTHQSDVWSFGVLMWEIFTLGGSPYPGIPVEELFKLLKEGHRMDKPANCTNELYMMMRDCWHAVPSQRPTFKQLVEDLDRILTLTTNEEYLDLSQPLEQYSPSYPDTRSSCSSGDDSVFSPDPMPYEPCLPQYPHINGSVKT
B1: the Kd was 1.77 nM.

In the case of B2, the Kd is 9.4 nM.

Consider B3, for which the Kd was found to be 32.8 nM.

Take B4: the Kd came to 0.15 nM.

Take B5: the Kd stood at 0.76 nM.

Turning to B6, the Kd turned out to be 1.99 nM.
